Experimental findings from patent publication US20240016892A1 (SHATTUCK LABS, published 2024) are described below.

Test [1] deals with T1, recombinant human LTβR-Fc (human, UniProt P36941 31-227, limits assumed).
T1 construct: not shown: Fc of the bought fusion (Acro Biosystems); not described
In words: MSD sandwich 'Dual - Potency #1': capture LTβR-Fc, TIGIT-Fc-LIGHT titrated, detection PVR-Biotin. The protocol: For the TIGIT-Fc-LIGHT chimeric protein; MSD Multi-Array plates (MSD) were pre-coated overnight with recombinant human LTβR-Fc or HVEM-Fc (Acro Biosystems) at 4° C. The plates were blocked with Diluent 100 (MSD) for at least one hour at room temperature on a shaker. After washing, analysis samples were added and then serially diluted 3-fold and loaded in duplicate wells to generate 8-10 test concentrations. The bound the TIGIT-Fc-LIGHT chimeric protein was detected with recombinant biotinylated human PVR (Acro Biosystems). Streptavidin conjugated to ruthenium (MSD), was added to bind the biotin labeled detector. MSD Gold Reading buffer (MSD) was added to the plate, and upon application of an electrical charge, an electrochemiluminescent signal was produced and detected with the MSD MESO QuickPlex SQ 120MM, Model 1300, to generate relative light units (RLU). Analogous assays were performed using mTIGIT-Fc-LIGHT and murine recombinant PVR, HVEM, and […] (Acro Biosystems).
The binding of the TIGIT-Fc-LIGHT chimeric protein to its receptors was characterized by Meso Scale Discovery (MSD) ELISA assays. […] Binding of the chimeric protein to LTβR-Fc was detected using an PVR-Biotin and using an electrochemiluminescence (ECL) readout. […] Binding of the chimeric protein to HVEM-Fc was detected using an PVR-Biotin and using an electrochemiluminescence (ECL) readout. […]

Test [2] has as its target T2, anti-human TIGIT antibody (MSD capture).
T2 construct: also called anti-TIGIT antibody
In words: MSD sandwich 'Dual - Antibody': capture anti-TIGIT, TIGIT-Fc-LIGHT titrated, detection anti-LIGHT.

The target of test [3] is T3, cell surface human HVEM (CHO-K1/hHVEM cells; Jurkat effector cells; human PBMC) (human, UniProt Q92956 39-283).
T3 construct: whole, on cells; also called cell surface HVEM
T3 sequence (looked up): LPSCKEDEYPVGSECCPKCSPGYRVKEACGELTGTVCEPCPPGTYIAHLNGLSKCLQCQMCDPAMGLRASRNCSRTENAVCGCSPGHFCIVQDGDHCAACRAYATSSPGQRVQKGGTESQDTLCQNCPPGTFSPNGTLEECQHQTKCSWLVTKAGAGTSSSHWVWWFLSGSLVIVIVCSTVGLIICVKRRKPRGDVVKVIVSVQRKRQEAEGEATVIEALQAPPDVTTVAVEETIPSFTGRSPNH
In words: flow cytometry, CHO-K1 cells stably expressing human HVEM; cell surface HVEM. For orientation: In flow cytometry, cells or beads pass a laser one at a time.

The target of test [4] is T4, recombinant human CD112 (PVRL2) (human, UniProt Q92692 32-360).
T4 construct: also called rhCD112 (PVRL2); Nectin-2
T4 sequence (looked up): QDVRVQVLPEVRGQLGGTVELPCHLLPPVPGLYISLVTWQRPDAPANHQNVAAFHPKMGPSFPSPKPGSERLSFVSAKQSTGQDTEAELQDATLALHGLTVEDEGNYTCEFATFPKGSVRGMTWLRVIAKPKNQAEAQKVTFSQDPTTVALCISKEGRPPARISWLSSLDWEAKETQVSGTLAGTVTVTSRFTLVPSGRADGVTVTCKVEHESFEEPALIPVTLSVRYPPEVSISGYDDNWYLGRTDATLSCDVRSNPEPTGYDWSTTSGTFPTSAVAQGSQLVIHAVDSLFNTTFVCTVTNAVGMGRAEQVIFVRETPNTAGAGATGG
Briefly: BLI (Octet-Red96), tagged rhCD112 (PVRL2) immobilised on biosensor. As to the method: (§1) Bio-Layer interferometry-based affinity testing was used to determine the on-rates (Ka), off-rates (Kd) and binding affinities (KD) of the TIGIT-Fc-LIGHT chimeric protein to intended binding targets, using histidine- or biotin-tagged versions of the human recombinant proteins (PVR, HVEM, LTβR, PVRL2, PVRL3, and Nectin-4; purchased from Acro Biosystems or Sino Biological). Commercially available or internally produced single-sided fusion protein controls (TIGIT-Fc and Fc-LIGHT) were also tested in parallel. Targets were immobilized at a concentration of 3 μg/mL in Kinetics buffer (PBS/0.1% Tween-20/1% BSA; pH7.0) to anti-pentaHis or streptavidin coated biosensors. Direct binding of fusion proteins to recombinant target proteins was performed on an Octet-Red96 BLI instrument, using association and dissociation times of 90 and 120 seconds, respectively.
Background: BLI is a label-free optical method that tracks binding on a fibre tip over time.

Test [5] has as its target T5, recombinant human Nectin-4 (human, UniProt Q96NY8 32-349).
T5 sequence (looked up): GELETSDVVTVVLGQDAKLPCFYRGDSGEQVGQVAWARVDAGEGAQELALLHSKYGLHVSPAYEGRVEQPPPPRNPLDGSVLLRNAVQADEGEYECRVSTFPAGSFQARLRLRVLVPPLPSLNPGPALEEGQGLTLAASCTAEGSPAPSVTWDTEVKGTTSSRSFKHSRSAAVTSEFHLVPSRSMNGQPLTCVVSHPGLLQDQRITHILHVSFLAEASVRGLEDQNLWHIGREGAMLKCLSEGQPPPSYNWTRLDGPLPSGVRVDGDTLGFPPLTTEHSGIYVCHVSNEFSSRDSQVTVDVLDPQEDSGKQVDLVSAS
Briefly: MSD: capture hNectin-4; detection anti-Fc-HRP.

Test [6] addresses T6, recombinant human LTβR (human, UniProt P36941 31-227, limits assumed).
T6 construct: Bought from Acro Biosystems or Sino Biological; construct limits and tag not specified; also called rhLTβR; TNFRSF3
Briefly: BLI (Octet), affinity for recombinant human LTβR compared with Fc-LIGHT. As to the method:
as §1
Protein-protein interactions (PPI) between the fusion proteins and their cognate binding partners were characterized using both recombinant protein and cell-based methods. First, bio-layer interferometry-based affinity testing was used to assess the kinetics of receptor/ligand binding.

Test [7] addresses T7, anti-human LIGHT-biotin antibody (MSD detection).
T7 construct: also called anti-LIGHT antibody
Briefly: MSD sandwich 'Dual - Antibody': capture anti-TIGIT, TIGIT-Fc-LIGHT titrated, detection anti-LIGHT (same curve as the capture row).

T1 sequence (P36941 31-227 limits assumed): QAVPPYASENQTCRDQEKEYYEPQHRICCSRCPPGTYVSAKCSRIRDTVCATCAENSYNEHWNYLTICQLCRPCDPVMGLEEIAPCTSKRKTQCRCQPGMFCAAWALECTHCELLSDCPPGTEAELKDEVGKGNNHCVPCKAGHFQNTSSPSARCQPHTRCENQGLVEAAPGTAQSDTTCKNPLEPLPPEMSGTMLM
T6 sequence (P36941 31-227 limits assumed): as above

B1: human TIGIT-Fc-LIGHT chimeric protein (Fc fusion)
chain: MMTGTIETTGNISAEKGGSIILQCHLSSTTAQVTQVNWEQQDQLLAICNADLGWHISPSFKDRVAPGPGLGLTLQSLTVNDTGEYFCIYHTYPDGTYTGRIFLEVLESSVAEHGARFQIPSKYGPPCPPCPAPEFLGGPSVFLFPPKPKDQLMISRTPEVTCVVVDVSQEDPEVQFNWYVDGVEVHNAKTKPREEQFNSTYRVVSVLTVLHQDWLSGKEYKCKVSSKGLPSSIEKTISNATGQPREPQVYTLPPSQEEMTKNQVSLTCLVKGFYPSDIAVEWESNGQPENNYKTTPPVLDSDGSFFLYSRLTVDKSRWQEGNVFSCSVLHEALHNHYTQKSLSLSLGKIEGRMDLQLHWRLGEMVTRLPDGPAGSWEQLIQERRSHEVNPAAHLTGANSSLTGSGGPLLWETQLGLAFLRGLSYHDGALVVTKAGYYYIYSKVQLGGVGCPLGLASTITHGLYKRTPRYPEELELLVSQQSPCGRATSSSRVWWDSSFLGGVVHLEAGEKVVVRVLDERLVRLRDGTRSYFGAFMV
notes: Said to exist as a hexamer (dimer of trimers); Glycosylated; also called hTIGIT-Fc-LIGHT; TIGIT-Fc(IgG4)-LIGHT
For B1, the EC50 in test [1] stood at 28.3 nM; in test [2], 1.15 nM; in test [3], 65.8 nM; in test [7], 1.15 nM. The Kd in test [4] came out at 3 nM. The koff in test [4] is 0.000471 s⁻¹. Moreover, the association rate constant (kon) in test [4] turned out to be 172000 M⁻¹ s⁻¹. Also, the binding result in test [5] is “binds”. Besides, the “fold affinity relative to Fc-LIGHT control” value in test [6] was about 8 fold.

What is called EC50 is the concentration at which the effect is half-maximal. The term Kd denotes the equilibrium constant for the complex coming apart. The koff is the first-order rate constant of dissociation. For orientation: kon means the second-order rate constant of association.
